For series [1], the target named is Sth7710 Type I-E Cascade plus Cas3 nickase (Streptococcus thermophilus DGCC7710) (UniProt F2XG53). Nature of the series: cell_activity.
The subject of series [2] is Sth7710 Type I-E Cascade, Cas5, Cas6 and Cse1 each AtCBF1-linked (Streptococcus thermophilus DGCC7710). Kind of series: cell_activity. The conditions noted are these: PAM AA 5'; value for R1 guides pooled (A2+, A4+, A1-); SE 18.9; no-guide control 0.

In the case of “GUGAUCCNNNNNNNNNNNNNNNNNNNNNNNNNNNNNNNNNGUUUUUCCCGCACACGCGGGGCACUACUGCUGUUCAUGUACAGUUUAAGCACUA / CACTACTGCTGTTCATGTACAGTTTAAGCACTA / TAGTGCTTAAACTGTACATGAACAGCAGTAGTG [R1 A3- guide RNA ; R1 A3- protospacer]”, the activity (% mutant reads) in series [1] (paired nicking A4+/A3-, PAM not printed for A3-) is 0.03.

With “GUGAUCCNNNNNNNNNNNNNNNNNNNNNNNNNNNNNNNNNGUUUUUCCCGCACACGCGGGGCAGCAGUAGUGUUACAGAAGCUAAACUCAACCA / CAGCAGTAGTGTTACAGAAGCTAAACTCAACCA / TGGTTGAGTTTAGCTTCTGTAACACTACTGCTG [R1 A4+ guide RNA ; R1 A4+ protospacer]”, the activity (anthocyanin positive cells) in series [2] stood at 153. Besides, in series [1] (paired nicking A4+/A1-, PAM AA 5'), the activity (% mutant reads) was found to be 0.06.

In the case of “GUGAUCCNNNNNNNNNNNNNNNNNNNNNNNNNNNNNNNNNGUUUUUCCCGCACACGCGGGGGAGGGUCUACUUCCAUCACCGUCUUGCUCGGUC / GAGGGTCTACTTCCATCACCGTCTTGCTCGGTC / GACCGAGCAAGACGGTGATGGAAGTAGACCCTC [R1 A2+ guide RNA ; R1 A2+ protospacer]”, the activity (anthocyanin positive cells) in series [2] turned out to be 153. For the same sequence, the activity (% mutant reads) in series [1] (paired nicking A2+/A3-, A2+/A1- pair gave 0.02%, PAM AA 5') came out at 0.06. On to “GUGAUCCNNNNNNNNNNNNNNNNNNNNNNNNNNNNNNNNNGUUUUUCCCGCACACGCGGGGUUUAUGGACAGAGCUCCAAGUGACCGAGCAAGA / TTTATGGACAGAGCTCCAAGTGACCGAGCAAGA / TCTTGCTCGGTCACTTGGAGCTCTGTCCATAAA [R1 A1- guide RNA ; R1 A1- protospacer]”, for which, in series [2], the activity (anthocyanin positive cells) worked out at 153.

Source of the values: patent US20200332306.
